Experimental data published in article PMC5974087, “The RPAP3-Cterminal domain identifies R2TP-like quaternary chaperones” (Nature Communications, 2018).

Molecular target: T1, recombinant RUVBL1-RUVBL2 complex (His_RUVBL1_Flag_RUVBL2) (human, UniProt Q9Y265 1-456; Q9Y230 1-463)
T1 construct: Purified predominantly as a dodecamer; hetero-hexamers and hetero-dodecamers in native MS; the SPR fit counts one hexamer; The methods tell different things of the RUVBL2 tag (N-terminal FLAG with TEV site; 3xFLAG in the NMR methods); also called RUVBL1/2; RUVBL1/2 hetero-multimers; source: E. coli (DE3), co-expressed, purified (HisTrap, anti-Flag M2 gel, Superdex S200, Superose 6); not shown: …
Assay: SPR; RPAP3-Cter amine-coupled on CM5; RUVBL1-RUVBL2 complex injected, 10 concentrations up to 75.2 nM; 20 mM NaKPi pH 7.5, 150 mM NaCl, 5 mM MgCl2, 1 mM DTT, 0.05% P20; 25 °C; 1:1 Langmuir model counting one hexamer of RUVBL1/2; Biacore 4000
Details: both partners purified

T1 sequence (Q9Y265 whole entry, chain 1 of 2): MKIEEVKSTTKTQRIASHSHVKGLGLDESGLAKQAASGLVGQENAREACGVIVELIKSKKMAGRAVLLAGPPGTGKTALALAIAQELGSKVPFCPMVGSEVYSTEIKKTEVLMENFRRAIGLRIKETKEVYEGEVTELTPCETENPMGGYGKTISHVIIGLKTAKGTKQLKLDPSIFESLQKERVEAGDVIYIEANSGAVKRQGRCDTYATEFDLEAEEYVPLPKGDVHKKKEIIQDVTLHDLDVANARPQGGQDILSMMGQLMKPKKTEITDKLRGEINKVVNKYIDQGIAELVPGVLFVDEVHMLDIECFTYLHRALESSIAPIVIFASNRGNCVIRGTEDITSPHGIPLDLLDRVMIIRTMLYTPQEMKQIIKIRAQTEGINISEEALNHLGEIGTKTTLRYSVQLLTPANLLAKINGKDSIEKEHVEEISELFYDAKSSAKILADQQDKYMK
T1 sequence (Q9Y230 whole entry, chain 2 of 2): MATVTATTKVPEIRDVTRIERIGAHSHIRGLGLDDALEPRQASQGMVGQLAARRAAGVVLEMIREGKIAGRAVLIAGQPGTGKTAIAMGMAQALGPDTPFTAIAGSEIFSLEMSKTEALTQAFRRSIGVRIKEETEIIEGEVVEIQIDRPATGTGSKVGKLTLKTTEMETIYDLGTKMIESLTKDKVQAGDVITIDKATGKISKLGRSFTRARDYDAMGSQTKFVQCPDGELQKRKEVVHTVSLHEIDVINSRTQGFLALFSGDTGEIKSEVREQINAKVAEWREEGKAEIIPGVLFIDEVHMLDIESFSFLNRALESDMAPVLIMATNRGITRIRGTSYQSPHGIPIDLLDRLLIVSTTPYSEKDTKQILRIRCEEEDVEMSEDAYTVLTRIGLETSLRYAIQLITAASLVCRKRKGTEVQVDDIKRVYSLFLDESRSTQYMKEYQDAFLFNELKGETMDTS

- Kd: 4.18 nM
- koff: 0.00112 s⁻¹
- kon: 297000 M⁻¹ s⁻¹
B1: RPAP3_(535-665), C-terminal domain of human RPAP3 (domain or fragment, UniProt Q9H6T3 535-665, looked up)
chain: AQFATTVLPPIPANSFQLESDFRQLKSSPDMLYQYLKQIEPSLYPKLFQKNLDPDVFNQIVKILHDFYIEKEKPLLIFEILQRLSELKRFDMAVMFMSETEKKIARALFNHIDKSGLKDSSVEELKKRYGG
modifications: 13C/15N isotope labelling in the NMR samples
notes: RPAP3, human, residues 535-665; numbering of isoform 1; Vector pnEA-3CH; also called RPAP3-Cter; RPAP3 C-terminal domain; source: E. coli (DE3) pRARE2, purified (TALON, HRV-3C cleavage, S75 size exclusion)
